From CN114591432A (NANJING FUJIEKANG BIOTECHNOLOGY CO LTD, dated 2022) come the findings set out here.

Changes are numbered by the printed parent chain.

B1: 单域抗体2B1 (VHH)
VHH: ESGGGSVQSGGSLRLSCQASGYTSSSYCMGWFRQVPGKEREGVASIDSGGFTHTANSVKGRFTISQDNAKNTLYLQMNSLKPEDTAMYYCAATPREFGWCSLSGHFNYWGQGTQVTVSS
notes: Crude extract from E. coli TG1 clones (pMECS), detected through an HA tag
B2: 单域抗体1E9 (VHH)
VHH: ESGGGSVQSGGSLRLSCTVFGATFNGHAMAWFRQAPGKDREGVSCISMSGRSTAYADSVKGRFTISRDNAKNTLYLQMNGLKPEDTAMYYCAAAAFGYCSGPWSSSHGEYMYWGQGTQVTVSS
notes: as for B1
B3: 单域抗体1H10 (VHH)
VHH: B2 VHH with S6L, S9A
notes: as for B1
B4: 单域抗体2B8 (VHH)
VHH: ESGGGSVQAGGSLRLSCAASGYTFSTYCMAWFRQAPGEEREGVAYIDTDGSTGHADSVRGRFTVSRDNAKNTLYLQMNSLKPEDTAIYYCAARWTRLCGWWSYPTGSWGQGTQVTVSS
notes: as for B1
B5: 单域抗体4A5 (VHH)
VHH: ESGGGLVQPGGSLRLSCTVSGLTFNDYALAWFRQAPGKDREGVSCISWSGGSTAYADSVKGRFTISRDNAKNTVYLQMNSLKPEDTAMYYCAAPAFRYCSGPWSSSHGEYIYWGQGTQVTVSS
notes: as for B1

The target of the assay is T1, 人源TNFα重组胞外结构域蛋白 (human, UniProt P01375 57-233).
T1 construct: range 57-233; No purification tag is described; also called 人源重组TNFα蛋白; TNFα蛋白
T1 sequence (P01375 57-233 limits assumed): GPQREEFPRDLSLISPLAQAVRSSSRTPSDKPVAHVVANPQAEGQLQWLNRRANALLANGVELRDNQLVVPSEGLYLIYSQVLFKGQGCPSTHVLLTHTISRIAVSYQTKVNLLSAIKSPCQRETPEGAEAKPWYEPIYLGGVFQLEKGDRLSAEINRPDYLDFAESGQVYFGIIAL
Kind of assay: ELISA of crude VHH extract on coated TNFα, anti-HA-HRP; positive if OD above 5 times the control well.
Regarding B1, the binding result is recorded as “binds”.

As to B2, the binding result is listed as “binds”.

For B3, the binding result is listed as “binds”.

Regarding B4, the binding result was “binds”.

For B5, the binding result is “binds”.
